From paper PMC5761276 (Journal of the American Chemical Society, 2017) come the findings set out here.

Positions count from the first letter of the chain named.

The target of experiment [1] is T1, Grb2-Alexa Fluor 647 (UniProt P62993 1-217, Alexa Fluor 647 (site not stated)). Description: single-molecule dwell time analysis.
Experiment [2] addresses T1, Grb2-Alexa Fluor 647. Description: ITC.

T1 sequence (P62993 whole entry): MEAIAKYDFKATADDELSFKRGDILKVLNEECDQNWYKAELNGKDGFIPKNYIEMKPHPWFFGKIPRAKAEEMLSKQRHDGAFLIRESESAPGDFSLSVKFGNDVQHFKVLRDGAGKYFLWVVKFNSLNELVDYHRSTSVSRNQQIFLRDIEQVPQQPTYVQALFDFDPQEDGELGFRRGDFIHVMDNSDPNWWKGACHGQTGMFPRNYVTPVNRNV

B1: LAT-FFFY (monovalent LAT1Y, residue 48-233), phosphorylated (domain or fragment)
chain: GIQFKRPHTVAPWPPAFPPVTSFPPLSQPDLLPIPRSPQPLGGSHRTPSSRRDSDGANSVASFENEEPACEDADEDEDDFHNPGFLVVLPDSTPATSTAAPSAPALSTPGIRDSAFSMESIDDFVNVPESGESAEASLDGSREFVNVSQELHPGAAKTEPAALSSQEAEEVEEEGAPDYENLQELN
modifications: phosphotyrosine at Y226; Alexa Fluor 568 (site not stated)
B1 displayed a koff in experiment [1] of 1.4 s⁻¹. Further, in experiment [2], the Kd worked out at 459 nM.

B2: LAT-FFYF (monovalent LAT1Y, residue 48-233), phosphorylated (domain or fragment)
chain: B1 chain with F144Y, Y179F
modifications: phosphotyrosine at Y191; Alexa Fluor 568 (site not stated)
B2 registered an off-rate constant (koff) in experiment [1] of 3.3 s⁻¹. This molecule came in with a Kd in experiment [2] of 195 nM.
